Test results reported in article PMC9352680, “A comprehensive thermodynamic model for RNA binding by the Saccharomyces cerevisiae Pumilio protein PUF4”.
Residue numbers refer to the chain shown, from its start. Names and notes keep the numbering of the source.

T1: PUF4 RNA-binding domain (Saccharomyces cerevisiae, UniProt P25339 537-888)
T1 sequence: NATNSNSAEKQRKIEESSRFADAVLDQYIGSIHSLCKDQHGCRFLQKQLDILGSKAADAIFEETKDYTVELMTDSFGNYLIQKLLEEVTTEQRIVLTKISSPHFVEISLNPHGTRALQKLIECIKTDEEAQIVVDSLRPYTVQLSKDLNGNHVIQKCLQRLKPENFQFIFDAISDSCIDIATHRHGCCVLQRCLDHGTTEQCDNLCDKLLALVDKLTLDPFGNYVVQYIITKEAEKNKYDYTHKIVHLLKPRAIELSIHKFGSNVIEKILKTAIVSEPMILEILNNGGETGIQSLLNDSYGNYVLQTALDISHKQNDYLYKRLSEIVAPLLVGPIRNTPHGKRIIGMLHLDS

B1: Ie_S4_P4E.1_K4.1_C4.1_H4.1_A4.1_[+5CC]_F4.1_T4.1 (ssRNA)
RNA: UUUGACAACUGAUCGUUCUUUCUUGUAUCCAUUAUUCUUUCUCGAUCAGUUGUCUUU
B2: Ie_S4_P4E.1_K4.1_C4.1_H4.1_A4.1_[+6TC]_F4.1_T4.1 (ssRNA)
RNA: B1 RNA with C29A, C30U, A31C
B3: Ie_S4_P4E.1_K4.1_C4.1_H4.1_A4.1_F4.1_[+8CT]_T4.1 (ssRNA)
RNA: B1 RNA with C29A, C30U, A31U, U32C
B4: Ie_S4_P4E.1_K4.1_C4.1_H4.1_A4.1_F4.1_[+9TC]_T4.1 (ssRNA)
RNA: B1 RNA with C29A, C30U, A31U, U32A, A34C
B5: Ie_S4_P4E.1_K4.1_C4.1_H4.1_A4.1_F4.1_[+9CC]_T4.1 (ssRNA)
RNA: B1 RNA with C29A, C30U, A31U, U32A, U33C, A34C
B6: Ib_S2_P3E.1_K3.1_C3.1_H3.1_[G2T]_A3.1_[A6G]_F3.1_T3.1 (ssRNA)
RNA: UUUGAUUAAUAUGAUAUCGUUCUUUCUUUUAUGUAUUCUUUCUCGAUAUCAUAUUAAUCUUU
B7: Ib_S2_P3E.1_K3.1_C3.1_H3.1_[A4G]_A3.1_[T5C]_F3.1_T3.1 (ssRNA)
RNA: B6 RNA with U29G, A31G, U32C, G33A
B8: Ib_S2_P3E.1_K3.1_C3.1_H3.1_[G2A]_A3.1_[A6G]_F3.1_T3.1 (ssRNA)
RNA: B6 RNA with U29A
B9: Ib_S2_P3E.1_K3.1_C3.1_H3.1_[A4C]_A3.1_[T5A]_F3.1_T3.1 (ssRNA)
RNA: B6 RNA with U29G, A31C, U32A, G33A
B10: Ic_S2_P3E.1_K3.1_C3.1_H3.1_A3.1_[A6G]_F3.1_T3.1 (ssRNA)
RNA: B6 RNA with U29G
B11: Ib_S2_P3E.1_K3.1_C3.1_H3.1_[A4C]_A3.1_[T5C]_F3.1_T3.1 (ssRNA)
RNA: B6 RNA with U29G, A31C, U32C, G33A
B12: Ie_S4_P4E.1_K4.1_C4.1_H4.1_A4.1_[+5TTT]_F4.1_T4.1 (ssRNA)
RNA: UUUGACAACUGAUCGUUCUUUCUUGUAUUUUAUUAUUCUUUCUCGAUCAGUUGUCUUU
B13: Ie_S4_P4E.1_K4.1_C4.1_H4.1_A4.1_F4.1_[+9TTC]_T4.1 (ssRNA)
RNA: B12 RNA with U29A, A35C
B14: Ie_S4_P4E.1_K4.1_C4.1_H4.1_A4.1_[+6CCT]_F4.1_T4.1 (ssRNA)
RNA: B12 RNA with U29A, U30C, U31C, A32U
B15: Ie_S4_P4E.1_K4.1_C4.1_H4.1_A4.1_[+7CTC]_F4.1_T4.1 (ssRNA)
RNA: B12 RNA with U29A, U31C, A32U, U33C
B16: Ie_S4_P4E.1_K4.1_C4.1_H4.1_A4.1_[+6TTT]_F4.1_T4.1 (ssRNA)
RNA: B12 RNA with U29A, A32U
B17: Ie_S4_P5E.1_K5.1_C5.1_H5.1_[+1TC]_A5.1_F5.1_T5.1 (ssRNA)
RNA: B12 RNA with G25U, U26C, A27G, U29A
B18: Ie_S4_P5E.1_K5.1_C5.1_H5.1_[+1TT]_A5.1_F5.1_T5.1 (ssRNA)
RNA: B12 RNA with G25U, A27G, U29A
B19: Ie_S4_P4E.1_K4.1_C4.1_H4.1_A4.1_F4.1_[+9CTT]_T4.1 (ssRNA)
RNA: B12 RNA with U29A, U33C, A35U
B20: Ie_S4_P4E.1_K4.1_C4.1_H4.1_A4.1_[+6CTC]_F4.1_T4.1 (ssRNA)
RNA: B12 RNA with U29A, U30C, A32C
B21: Ie_S4_P4E.1_K4.1_C4.1_H4.1_A4.1_[+6TCT]_F4.1_T4.1 (ssRNA)
RNA: B12 RNA with U29A, U31C, A32U
B22: Ie_S4_P4E.1_K4.1_C4.1_H4.1_A4.1_[+5TTC]_F4.1_T4.1 (ssRNA)
RNA: B12 RNA with U31C
B23: Ie_S4_P4E.1_K4.1_C4.1_H4.1_A4.1_[+7TTC]_F4.1_T4.1 (ssRNA)
RNA: B12 RNA with U29A, A32U, U33C
B24: Ie_S4_P4E.1_K4.1_C4.1_H4.1_A4.1_[+5TCC]_F4.1_T4.1 (ssRNA)
RNA: B12 RNA with U30C, U31C
B25: Ie_S4_P4E.1_K4.1_C4.1_H4.1_A4.1_F4.1_[+8TCC]_T4.1 (ssRNA)
RNA: B12 RNA with U29A, A32U, U33C, U34C
B26: Ie_S4_P4E.1_K4.1_C4.1_H4.1_A4.1_F4.1_[+9CTC]_T4.1 (ssRNA)
RNA: B12 RNA with U29A, U33C, A35C
B27: Ie_S4_P4E.1_K4.1_C4.1_H4.1_A4.1_[+7C]_F4.1_T4.1 (ssRNA)
RNA: UUUGACAACUGAUCGUUCUUUCUUGUAUAUCUAUUCUUUCUCGAUCAGUUGUCUUU
B28: Ie_S4_P4E.1_K4.1_C4.1_H4.1_A4.1_F4.1_[+9C]_T4.1 (ssRNA)
RNA: B27 RNA with C31U, U32A, A33C
B29: Ie_S4_P4E.1_K4.1_C4.1_H4.1_A4.1_F4.1_[+8C]_T4.1 (ssRNA)
RNA: B27 RNA with C31U, U32C
B30: Ie_S4_P4E.1_K4.1_C4.1_H4.1_A4.1_F4.1_[+9CCCTT]_T4.1 (ssRNA)
RNA: UUUGACAACUGAUCGUUCUUUCUUGUAUAUUACCCUUUUCUUUCUCGAUCAGUUGUCUUU
B31: Ie_S4_P4E.1_K4.1_C4.1_H4.1_[+4TCTC]_A4.1_F4.1_T4.1 (ssRNA)
RNA: UUUGACAACUGAUCGUUCUUUCUUGUAUCUCUAUUAUUCUUUCUCGAUCAGUUGUCUUU
B32: Ie_S4_P5E.1_K5.1_C5.1_H5.1_A5.1_[+5CCC]_F5.1_T5.1 (ssRNA)
RNA: B31 RNA with U30C
B33: Ie_S4_P4E.1_K4.1_C4.1_H4.1_A4.1_F4.1_[+9TCTC]_T4.1 (ssRNA)
RNA: B31 RNA with C29A, C31U, U32A, A33U, U34C, A36C
B34: Ie_S4_P5E.1_K5.1_C5.1_H5.1_[+1CTC]_A5.1_F5.1_T5.1 (ssRNA)
RNA: B31 RNA with G25C, A27C, U28G, C29U, U30A, C31U
B35: Ie_S4_P4E.1_K4.1_C4.1_H4.1_A4.1_[+5TTCC]_F4.1_T4.1 (ssRNA)
RNA: B31 RNA with C29U, U32C
B36: Ie_S4_P4E.1_K4.1_C4.1_H4.1_A4.1_[+6TCTC]_F4.1_T4.1 (ssRNA)
RNA: B31 RNA with C29A, A33C
B37: Ie_S4_P4E.1_K4.1_C4.1_H4.1_A4.1_[+7TCTC]_F4.1_T4.1 (ssRNA)
RNA: B31 RNA with C29A, C31U, U32C, A33U, U34C
B38: Ie_S4_P4E.1_K4.1_C4.1_H4.1_A4.1_[+6CTCT]_F4.1_T4.1 (ssRNA)
RNA: B31 RNA with C29A, U30C, C31U, U32C, A33U
B39: Ie_S4_P4E.1_K4.1_C4.1_H4.1_A4.1_F4.1_[+8TCTC]_T4.1 (ssRNA)
RNA: B31 RNA with C29A, C31U, A33C, U35C
B40: Ie_S4_P4E.1_K4.1_C4.1_H4.1_A4.1_F4.1_[+9CTCT]_T4.1 (ssRNA)
RNA: B31 RNA with C29A, C31U, U32A, A33C, U35C, A36U
B41: Ie_S4_P5E.1_K5.1_C5.1_H5.1_[+1CCT]_A5.1_F5.1_T5.1 (ssRNA)
RNA: B31 RNA with G25C, U26C, A27U, U28G, C29U, U30A, C31U
B42: Ie_S4_P4E.1_K4.1_C4.1_H4.1_A4.1_[+6CCCT]_F4.1_T4.1 (ssRNA)
RNA: B31 RNA with C29A, U30C, U32C, A33U
B43: Ie_S4_P4E.1_K4.1_C4.1_H4.1_A4.1_[+5CCTC]_F4.1_T4.1 (ssRNA)
RNA: B31 RNA with U30C, C31U, U32C
B44: Ie_S4_P4E.1_K4.1_C4.1_H4.1_A4.1_[+5TCTC]_F4.1_T4.1 (ssRNA)
RNA: B31 RNA with C29U, U30C, C31U, U32C
B45: Ie_S4_P4E.1_K4.1_C4.1_H4.1_[+4CTCTC]_A4.1_F4.1_T4.1 (ssRNA)
RNA: UUUGACAACUGAUCGUUCUUUCUUGUACUCUCUAUUAUUCUUUCUCGAUCAGUUGUCUUU
B46: Ie_S4_P4E.1_K4.1_C4.1_H4.1_A4.1_F4.1_[+9TCTCT]_T4.1 (ssRNA)
RNA: B30 RNA with C33U, C35U, U36C
B47: Ie_S4_P4E.1_K4.1_C4.1_H4.1_A4.1_[+5CTCTC]_F4.1_T4.1 (ssRNA)
RNA: B45 RNA with C28U, U29C, C30U, U31C, C32U, U33C
B48: Ie_S4_P5E.1_K5.1_C5.1_H5.1_A5.1_[+5TCTC]_F5.1_T5.1 (ssRNA)
RNA: B45 RNA with C28U
B49: Ie_S4_P4E.1_K4.1_C4.1_H4.1_A4.1_F4.1_[+8CCTCT]_T4.1 (ssRNA)
RNA: B30 RNA with A32C, C34U, U37A
B50: Ie_S4_P5E.1_K5.1_C5.1_H5.1_A5.1_[+5TTCC]_F5.1_T5.1 (ssRNA)
RNA: B45 RNA with C28U, C30U, U31C
B51: Ie_S4_P4E.1_K4.1_C4.1_H4.1_A4.1_[+5CCTCT]_F4.1_T4.1 (ssRNA)
RNA: B45 RNA with C28U, U29C

Target: T1, PUF4 RNA-binding domain
Experiment: Mg; RNA-MaP; 20 mM Na-HEPES pH 7.4, 30 mM KOAc, 0.75 mM MgCl2, 0.1% Tween-20, 5% glycerol, 0.1 mg/mL BSA, 2 mM DTT; 25 C; 0.0125-409.6 nM protein
Conditions: tags: N-His6-TEV cleaved; C-SNAP kept, Cy3B-labelled; label: tethered on chip by stalled RNA polymerase

Binder	Kd [nM]
B1	13.5
B2	4.82
B3	3.92
B4	0.647
B5	0.607
B6	189
B7	24.6
B8	76.2
B9	1360
B10	26.3
B11	581
B12	1.72
B13	0.42
B14	11.2
B15	10.3
B16	4.94
B17	288
B18	1.52
B19	1.08
B20	10.3
B21	8.73
B22	31.3
B23	4.42
B24	34.1
B25	4.35
B26	1.39

Binder	Kd [nM]
B27	1.92
B28	1.51
B29	13.1
B30	0.565
B31	4.78
B32	7.89
B33	0.36
B34	216
B35	54
B36	15.4
B37	6.61
B38	12
B39	5.61
B40	0.777
B41	1.07
B42	22.2
B43	43.3
B44	35.8
B45	6.67
B46	0.343
B47	42.8
B48	9.69
B49	6.66
B50	9.15
B51	10
